Measurements reported in the supplement of paper PMC9732359.
± gives the uncertainty stated by the source.

Experiment: protein stability index of a GFP-peptide fusion (yeast GPS) (PSI 1-4); higher = more stable; sorted into four equal gates, so the index is relative within each strain
How it was run: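 The protein stability index combines read frequencies across sorting gates, each weighted by its gate number and then summed. To obtain those frequencies, a pooled yeast library of GFP fusions to tiled 17-residue yeast protein peptides, on a plasmid also expressing Cherry, was grown to mid-log phase in leucine-free medium. The cells were sorted into four equal gates by GFP/Cherry ratio before plasmid amplification by PCR and Illumina sequencing.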

Sequence	protein stability index (doa10∆)	protein stability index (pdr5∆)	protein stability index (ubr1∆)	protein stability index (san1∆)
LNAITLDGDRADKRGVL [SMC3]	2.94 ± 0.15	3.1 ± 0.17	3.03 ± 0.097	–
KESQLPRIQRADPVALY [RPB5]	2.32 ± 0.069	2.63 ± 0.058	2.59 ± 0.048	2.5 ± 0.089
GLPVGAIMNCADNSGAR [RPL23A]	1.91 ± 0.053	2.28 ± 0.06	1.83 ± 0.055	1.63 ± 0.068
NVESAGAMTPEEIFFKS [RPC40]	3.04 ± 0.074	3.31 ± 0.085	3.27 ± 0.045	3.17 ± 0.054
WAMQGISYLQEVQCTST [PCI8]	3.32 ± 0.15	3.06 ± 0.13	3.02 ± 0.099	2.19 ± 0.16
KKRSQAKMNAKTDFAKI [RPC82]	3.42 ± 0.094	3.23 ± 0.12	3.37 ± 0.059	3.22 ± 0.076
VTNSLSNEEKEKIKMKL [GAL11]	–	–	–	3.1 ± 0.13
ATLSKLKKKYQIILDRF [SIR3]	2.32 ± 0.065	1.95 ± 0.073	1.71 ± 0.061	1.75 ± 0.12
VSYKDYSIFLENENILI [SMC1]	2.62 ± 0.13	2.81 ± 0.1	2.59 ± 0.086	–
SSTGGGLFGNKPALGSL [YGR119C/NUP57]	3.33 ± 0.1	3.44 ± 0.088	3.41 ± 0.056	3.4 ± 0.048
RMTIRTRGRSATIRETY [RRP43]	2.96 ± 0.057	2.64 ± 0.061	2.2 ± 0.049	2.67 ± 0.062
KKIRNVPVRDGVTIEFS [RPL9A]	2.59 ± 0.11	2.55 ± 0.15	3.21 ± 0.092	2.43 ± 0.16
SLDQGDAEEDSQVENRV [SMC4]	–	–	2.83 ± 0.17	–
TSSAFFYQQVHKKDRLQ [SIR4]	2.43 ± 0.048	2 ± 0.046	2.44 ± 0.032	2.26 ± 0.053
DDEGSFAQENSELAVAT [SRB6]	3.08 ± 0.065	3.25 ± 0.075	3.3 ± 0.054	3.08 ± 0.054
LEIVYGYALRDVQARRQ [RPP1]	2.43 ± 0.15	1.92 ± 0.11	2.3 ± 0.26	2.36 ± 0.13
LKISLIQIFRAHLWQKI [PRP8]	1.17 ± 0.077	1.18 ± 0.055	1.12 ± 0.057	1.13 ± 0.13
DLDTVLKKDIESLRGIL [SRP72]	1.63 ± 0.088	1.38 ± 0.096	1.61 ± 0.089	1.37 ± 0.25
NGFMHAGTTDNSFIKAN [RPN2]	1.24 ± 0.055	1.33 ± 0.045	1.26 ± 0.051	1.35 ± 0.082
NGIVDQVLVTTNQDGLK [RPB2]	2.55 ± 0.092	2.18 ± 0.1	1.81 ± 0.055	2.61 ± 0.088
EYSRDCFCEDHCDKCSV [RPB3]	3.13 ± 0.19	3.51 ± 0.15	2.98 ± 0.2	3.24 ± 0.18
MTRILPQQSRYISFIKD [RPN2]	2.16 ± 0.057	2.6 ± 0.057	1.92 ± 0.053	1.87 ± 0.067
KRKLLEHRRYDDQLKQR [RPT4]	2.04 ± 0.27	2.1 ± 0.22	1.92 ± 0.17	1.42 ± 0.23
MDFANLWVFQAFTCFCI [SRB8]	1.55 ± 0.054	1.2 ± 0.043	1.21 ± 0.042	1.16 ± 0.08
SIVNICDIQEEQVDITA [PUP1]	2.83 ± 0.15	2.91 ± 0.16	2.74 ± 0.11	3.31 ± 0.12
MEFSNLYKEFFNEKFPS [NUT1]	–	3.17 ± 0.15	3.04 ± 0.1	2.98 ± 0.069
KTLEKLESTIAETQGSK [IRR1]	–	–	–	1.39 ± 0.27

Sequence	protein stability index (doa10∆)	protein stability index (pdr5∆)	protein stability index (ubr1∆)	protein stability index (san1∆)
FITTLLKSLYSFFNISP [SIN4]	2.26 ± 0.042	1.5 ± 0.037	1.53 ± 0.034	1.46 ± 0.057
FKDETISKKIIGMSLLM [SIR3]	3.04 ± 0.062	2.07 ± 0.06	3.51 ± 0.058	2.78 ± 0.068
LEIMQLVCGNDSSYQDI [RET1]	–	–	2.91 ± 0.17	3.18 ± 0.081
TVISGDPNLELDQVGVP [RPO21]	3.48 ± 0.23	3.2 ± 0.13	3.04 ± 0.16	2.48 ± 0.23
IQNDEEYDTPALFFDPS [PRP8]	2.76 ± 0.073	3.05 ± 0.056	2.86 ± 0.071	2.73 ± 0.085
KICSSEMINEQKLPQYI [RGR1]	3.02 ± 0.11	2.9 ± 0.13	2.98 ± 0.1	3.01 ± 0.15
TSSLQLYKFQNFQDLSY [YML103C/NUP188]	2.81 ± 0.065	3.04 ± 0.064	2.65 ± 0.071	2.84 ± 0.055
EILNIFKHISVKDFTSL [RPO21]	2.41 ± 0.14	2.23 ± 0.12	1.85 ± 0.046	2.14 ± 0.11
SKTDNIEDPNLSSNITF [YMR153W/NUP53]	2.84 ± 0.084	2.81 ± 0.08	3.27 ± 0.073	3 ± 0.064
EAPFLTSGTSSEQFNVW [GAL11]	2.56 ± 0.091	3.27 ± 0.072	3.21 ± 0.13	3.02 ± 0.062
PLKTQTKNGTPNPNNMK [GAL11]	2.98 ± 0.085	2.94 ± 0.084	2.95 ± 0.043	2.73 ± 0.046
TNKENNIVDSSAAGNKA [YIL149C/MLP2]	2.18 ± 0.061	2.44 ± 0.057	2.92 ± 0.036	2.87 ± 0.041
DDDVTPSTKVASSAVMN [YLR335W/NUP2]	3.5 ± 0.14	3.19 ± 0.083	3.26 ± 0.062	3.3 ± 0.065
DPYELKGEVVLVNIRTQ [ITC1]	1.57 ± 0.098	2.66 ± 0.14	2.3 ± 0.099	2.45 ± 0.11
NILKILSSLILKIFQEQ [SRB8]	2.17 ± 0.047	1.99 ± 0.05	2.02 ± 0.037	2.48 ± 0.1
PSFVKSGKLRDYQVQGL [ISW2]	3.33 ± 0.076	3.39 ± 0.071	3.31 ± 0.058	3.22 ± 0.039
SLKTKLNSNIRAGVTIP [SNF5]	2.6 ± 0.077	2.72 ± 0.051	2.63 ± 0.047	2.36 ± 0.066
APIPIREDIDDPLAKVN [BRR2]	2.9 ± 0.075	2.66 ± 0.07	2.22 ± 0.059	2.55 ± 0.09
GDHNKLRSTIANLLQIN [YML103C/NUP188]	2.27 ± 0.054	2.35 ± 0.069	1.87 ± 0.035	1.45 ± 0.13
VSKADILLSHHRASPAD [POP5]	2.34 ± 0.15	3.26 ± 0.16	2.91 ± 0.1	3.18 ± 0.054
YNRRQDKKNKRLKFGHR [SNF2]	3.01 ± 0.092	3.14 ± 0.09	3.09 ± 0.095	3.22 ± 0.093
FLIKASVREINLYMLVT [SSN8]	1.55 ± 0.063	1.43 ± 0.047	1.44 ± 0.052	1.89 ± 0.091
SLFGSIGDDGYDLLIST [SRB5]	2.17 ± 0.087	2.07 ± 0.14	3.5 ± 0.11	3.05 ± 0.071
YLLISKENKKRKNFKMG [IRR1]	2.91 ± 0.097	3.24 ± 0.14	3.11 ± 0.078	3.02 ± 0.06
HLNHYILLRYHHNDISN [YCG1]	1.23 ± 0.088	1.17 ± 0.068	1.33 ± 0.063	1.19 ± 0.15
CDLDFPLRENTNVLDVK [YDL116W/NUP84]	2.72 ± 0.065	2.36 ± 0.055	2.56 ± 0.037	2.36 ± 0.077
